Patent publication US20240076396A1 (Regeneron, published 2024)
Numbering of substitutions follows the chain as printed. Names may count otherwise.

T1: hGITR.mFc (dimeric recombinant human GITR ectodomain protein, mouse Fc fusion) (human)
T1 construct: also called dimeric human GITR; dimeric GITR
T1 chain: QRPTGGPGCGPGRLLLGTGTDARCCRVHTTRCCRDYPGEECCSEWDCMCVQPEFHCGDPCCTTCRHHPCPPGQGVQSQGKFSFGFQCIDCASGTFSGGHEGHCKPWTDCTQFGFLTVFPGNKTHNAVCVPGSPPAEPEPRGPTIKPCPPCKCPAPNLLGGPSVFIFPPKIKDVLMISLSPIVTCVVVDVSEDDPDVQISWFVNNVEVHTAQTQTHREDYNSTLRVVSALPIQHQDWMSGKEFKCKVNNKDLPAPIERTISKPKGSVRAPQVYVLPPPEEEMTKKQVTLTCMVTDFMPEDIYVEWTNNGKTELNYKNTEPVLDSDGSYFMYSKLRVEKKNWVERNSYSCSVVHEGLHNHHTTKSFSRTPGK

B1: mAb2 (antibody, human IgG1, kappa, V domains shown)
VH: QVQLQESGPGLVKPSETLSLTCIVSGGSISGYFWNWIRQPPGKGLEWIGYIYYSGTTIYNPSLKSRFTISLDTSKNQFSLKLTSVTAADTAVYYCARESYEPSPRYFDHWGQGTLVTVSS
VL: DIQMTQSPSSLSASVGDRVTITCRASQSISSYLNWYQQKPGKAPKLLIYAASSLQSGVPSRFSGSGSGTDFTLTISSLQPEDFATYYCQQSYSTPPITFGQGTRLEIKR
notes: Human IgG1; N101E variant of CompAb1; also called N101E Variant; N101E
B2: CompAb1 (antibody, V domains shown)
VH: B1 VH with E101N
VL: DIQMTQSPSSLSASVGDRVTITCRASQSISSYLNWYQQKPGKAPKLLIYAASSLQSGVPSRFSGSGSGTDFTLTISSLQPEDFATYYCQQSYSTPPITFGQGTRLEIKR
notes: Human IgG1; also called WT; Sample Number 1
B3: CompAb1 heavy chain variant N101L (antibody, human IgG1, V domains shown)
VH: B1 VH with E101L
VL: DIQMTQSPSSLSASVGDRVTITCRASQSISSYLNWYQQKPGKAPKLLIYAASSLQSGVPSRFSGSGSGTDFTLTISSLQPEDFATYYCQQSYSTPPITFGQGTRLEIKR
notes: human IgG1 constant region; tested as CHOt supernatant; also called Sample Number 10
B4: CompAb1 heavy chain variant N101P (antibody, human IgG1, V domains shown)
VH: B1 VH with E101P
VL: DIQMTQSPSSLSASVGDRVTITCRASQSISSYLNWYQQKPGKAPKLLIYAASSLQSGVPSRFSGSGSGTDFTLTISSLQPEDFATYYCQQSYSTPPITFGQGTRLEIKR
notes: human IgG1 constant region; tested as CHOt supernatant; also called Sample Number 12
B5: mAb3 (antibody, human IgG1, kappa, V domains shown)
VH: B1 VH with E101S
VL: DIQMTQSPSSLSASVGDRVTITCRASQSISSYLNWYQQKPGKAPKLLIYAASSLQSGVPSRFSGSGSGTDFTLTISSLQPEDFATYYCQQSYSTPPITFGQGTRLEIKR
notes: Human IgG1; N101S variant of CompAb1; also called N101S Variant; N101S
B6: mAb4 (antibody, human IgG1, kappa, V domains shown)
VH: B1 VH with E101T
VL: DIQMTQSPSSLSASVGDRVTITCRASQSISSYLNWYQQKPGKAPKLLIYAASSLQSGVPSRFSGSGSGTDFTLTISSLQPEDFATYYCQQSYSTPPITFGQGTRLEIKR
notes: Human IgG1; N101T variant of CompAb1; also called N101T Variant; N101T
B7: CompAb1 heavy chain variant N101H (antibody, human IgG1, V domains shown)
VH: B1 VH with E101H
VL: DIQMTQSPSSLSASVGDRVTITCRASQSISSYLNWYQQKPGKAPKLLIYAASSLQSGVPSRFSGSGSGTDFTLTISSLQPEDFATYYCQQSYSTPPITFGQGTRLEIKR
notes: human IgG1 constant region; tested as CHOt supernatant; also called Sample Number 7
B8: CompAb1 heavy chain variant N101Y (antibody, human IgG1, V domains shown)
VH: B1 VH with E101Y
VL: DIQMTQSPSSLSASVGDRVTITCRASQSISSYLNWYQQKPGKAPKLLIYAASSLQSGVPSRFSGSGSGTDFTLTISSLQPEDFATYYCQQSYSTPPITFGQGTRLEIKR
notes: human IgG1 constant region; tested as CHOt supernatant; also called Sample Number 19
B9: CompAb1 heavy chain variant N101A (antibody, human IgG1, V domains shown)
VH: B1 VH with E101A
VL: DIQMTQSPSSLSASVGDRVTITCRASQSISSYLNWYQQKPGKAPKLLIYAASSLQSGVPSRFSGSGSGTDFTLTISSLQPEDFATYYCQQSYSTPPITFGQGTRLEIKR
notes: human IgG1 constant region; tested as CHOt supernatant; also called Sample Number 2
B10: CompAb1 heavy chain variant S103K (antibody, human IgG1, V domains shown)
VH: B1 VH with E101N, S103K
VL: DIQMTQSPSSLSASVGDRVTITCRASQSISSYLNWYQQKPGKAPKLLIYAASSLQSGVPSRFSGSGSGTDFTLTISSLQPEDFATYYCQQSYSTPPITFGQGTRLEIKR
notes: human IgG1 constant region; tested as CHOt supernatant; also called Sample Number 27
B11: CompAb1 heavy chain variant N101W (antibody, human IgG1, V domains shown)
VH: B1 VH with E101W
VL: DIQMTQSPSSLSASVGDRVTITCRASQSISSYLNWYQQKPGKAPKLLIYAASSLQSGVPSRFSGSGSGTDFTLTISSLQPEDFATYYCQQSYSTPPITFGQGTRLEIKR
notes: human IgG1 constant region; tested as CHOt supernatant; also called Sample Number 18
B12: CompAb1 heavy chain variant S103R (antibody, human IgG1, V domains shown)
VH: B1 VH with E101N, S103R
VL: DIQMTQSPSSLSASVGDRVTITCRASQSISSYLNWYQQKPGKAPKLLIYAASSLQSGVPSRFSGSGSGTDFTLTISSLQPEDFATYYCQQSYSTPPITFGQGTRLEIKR
notes: human IgG1 constant region; tested as CHOt supernatant; also called Sample Number 33
B13: CompAb1 heavy chain variant N101F (antibody, human IgG1, V domains shown)
VH: B1 VH with E101F
VL: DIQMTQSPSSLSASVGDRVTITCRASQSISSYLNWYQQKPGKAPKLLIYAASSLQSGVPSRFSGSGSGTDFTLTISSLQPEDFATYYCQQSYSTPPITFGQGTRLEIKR
notes: human IgG1 constant region; tested as CHOt supernatant; also called Sample Number 5
B14: hGITR.mmH (soluble monomeric recombinant human GITR ectodomain protein) (receptor)
chain: QRPTGGPGCGPGRLLLGTGTDARCCRVHTTRCCRDYPGEECCSEWDCMCVQPEFHCGDPCCTTCRHHPCPPGQGVQSQGKFSFGFQCIDCASGTFSGGHEGHCKPWTDCTQFGFLTVFPGNKTHNAVCVPGSPPAEPEQKLISEEDLGGEQKLISEEDLHHHHHH
notes: also called monomeric human GITR

What was measured:
[1] = molecular target: B14; assay: SPR Biacore 2000 25C; CHOt supernatant antibody captured on anti-human Fc; 100 nM hGITR.mmH
Experimental: (§1) Biacore experiments for antibodies secreted in conditioned culture medium were performed as follows. Using a Biacore 2000 instrument at 25° C., antibodies were captured for 80 seconds at a flow rate of 8 uL/min on a CM5 anti-humanFc-coupled surface. Approximately 1000-2000 RU of each antibody were captured. 100 nM hGITR.mmH (soluble monomeric hGITR, SEQ ID NO: 45) or 50 nM hGITR.mFc (dimeric Macaca fasicularis GITR, SEQ ID NO: 46) were injected over this surface for 2 minutes at a flow rate of 50 uL/min. Dissociation was measured for 2 minutes. The KD and t_{1/2} were calculated by fitting the double-referenced sensorgrams to a 1:1 binding model.

[2] = molecular target: T1, hGITR.mFc (dimeric recombinant human …); assay: SPR Biacore 2000 25C; CHOt supernatant antibody captured on anti-human Fc; 50 nM hGITR.mFc
Experimental: as §1

[3] = molecular target: T1, hGITR.mFc (dimeric recombinant human …); assay: SPR Biacore T-200; purified antibody captured on anti-human Fc; 5 nM hGITR.mFc
Experimental: (§2) For purified antibodies, Biacore experiments were performed as follows. Using a Biacore T-200 instrument, antibodies were captured for 30 seconds at a flow rate of 8 uL/min on a CM5 anti-humanFc-coupled surface. Approximately 120 RU of each antibody were captured. 10 nM hGITR.mmH (soluble monomeric hGITR, SEQ ID NO: 45) or 5 nM hGITR.mFc (dimeric Macaca fasicularis GITR, SEQ ID NO: 46) were injected over this surface for 5 minutes at a flow rate of 50 uL/min. Dissociation was measured for 10 min. The KD and t_{1/2} were calculated by fitting the double-referenced sensorgrams to a 1:1 binding model.

[4] = molecular target: B14; assay: SPR Biacore T-200; purified antibody captured on anti-human Fc; 10 nM hGITR.mmH
Experimental: as §2

[5] = molecular target: B14; assay: SPR Biacore 2000 25C; CHOt supernatant antibody captured on anti-human Fc
Experimental: as §1

[6] = molecular target: T1, hGITR.mFc (dimeric recombinant human …); assay: as above
Experimental: as §1

[7] = molecular target: human GITR-L (6His.GCN4.G4Sx3.hGITR-L) (human, UniProt Q9UNG2 52-177); assay: ELISA: hGITR.mmH (3.4 pM to 200 nM) on plate-coated hGITR-L, anti-cMyc-HRP detection
Experimental: FIG. 13 depicts effects of anti-GITR antibody on human GITR binding to human GITR-L. Binding of human GITR protein, hGITR.mmH, at a range of concentrations (3.4 pM to 200 nM) to immobilized human GITR-L was evaluated by ELISA and EC₅₀ values for binding were determined. A fixed concentration of recombinant hGITR.mmH (1.5 nM), based on the EC₅₀ values calculated for binding to hGITR-L, was pre-incubated with mAb1, or an IgG1 isotype control at a range of concentrations (51 pM to 3 μM) and added to wells containing immobilized human GITR-L to determine the ability of the antibodies to block hGITR.mmH binding to immobilized human GITR-L. Binding of hGITR.mmH was detected with an HRP-conjugated cMyc antibody using TMB substrate, and the OD₄₅₀ was measured by spectrophotometry.
The binding of recombinant hGITR to its ligand, hGITR-L, was determined using an enzyme-linked immunosorbent assay (ELISA)-based binding assay. […] Plate-bound hGITR.mmH was detected with horseradish peroxidase (HRP) conjugated goat anti-cMyc antibody at 0.33 μg/ml and visualized using the colorimetric HRP substrate 3-3′, 5-5′-tetramethylbenzidine (TMB) according to the manufacturer's recommended procedures. Absorbance data at 450 nm (OD₄₅₀) were plotted as a function of the concentration of recombinant hGITR.mmH. […]

human GITR-L (6His.GCN4.G4Sx3.hGITR-L), sequence (Q9UNG2 52-177): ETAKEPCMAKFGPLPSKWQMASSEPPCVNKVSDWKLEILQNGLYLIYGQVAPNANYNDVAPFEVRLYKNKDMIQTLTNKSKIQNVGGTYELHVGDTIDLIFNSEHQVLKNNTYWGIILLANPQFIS

| Binder | Kd [1] | t1/2 [1] | Kd [2] | t1/2 [2] | Kd [3] | t1/2 [3] | Kd [4] | t1/2 [4] | binding result [5] | binding result [6] | EC50 [7] |
| --- | --- | --- | --- | --- | --- | --- | --- | --- | --- | --- | --- |
| B1 | 109 nM | 0.99 min | 1.27 nM | 34.9 min | 0.902 nM | 9.55 min | 11.3 nM | 2.8 min |  |  |  |
| B2 | 24.9 nM | 4.56 min | 0.201 nM | 194 min | 0.137 nM | 35.6 min | 1.51 nM | 6.75 min |  |  |  |
| B3 |  |  | 57.5 nM | 0.45 min |  |  |  |  | no binding (tested: 100 nM hGITR.mmH) |  |  |
| B4 |  |  |  |  |  |  |  |  | no binding (tested: 100 nM hGITR.mmH) | no binding (tested: 50 nM hGITR.mFc) |  |
| B5 | 81.9 nM | 0.92 min | 0.908 nM | 37.7 min | 0.882 nM | 5.56 min | 6.05 nM | 4.65 min |  |  |  |
| B6 | 61.3 nM | 1.52 min | 0.284 nM | 110 min | 0.663 nM | 10 min | 8 nM | 2.25 min |  |  |  |
| B7 |  |  |  |  |  |  |  |  | no binding (tested: 100 nM hGITR.mmH) | no binding (tested: 50 nM hGITR.mFc) |  |
| B8 |  |  |  |  |  |  |  |  | no binding (tested: 100 nM hGITR.mmH) | no binding (tested: 50 nM hGITR.mFc) |  |
| B9 |  |  | 42.4 nM | 0.47 min |  |  |  |  | no binding (tested: 100 nM hGITR.mmH) |  |  |
| B10 |  |  | 47.5 nM | 0.64 min |  |  |  |  | no binding (tested: 100 nM hGITR.mmH) |  |  |
| B11 |  |  |  |  |  |  |  |  | no binding (tested: 100 nM hGITR.mmH) | no binding (tested: 50 nM hGITR.mFc) |  |
| B12 |  |  | 45.6 nM | 0.75 min |  |  |  |  | no binding (tested: 100 nM hGITR.mmH) |  |  |
| B13 |  |  |  |  |  |  |  |  | no binding (tested: 100 nM hGITR.mmH) | no binding (tested: 50 nM hGITR.mFc) |  |
| B14 |  |  |  |  |  |  |  |  |  |  | 2.05 nM |
